Measured values reported in patent publication US20240116985A1 (published 2024).
One block for each binder: values may come before it. Starred links: 1 amine or outer side, 2 acyl side, 3 side chain; linkers in the order of their positions; H or OH if unused. Positions of bridges follow the written chain, without caps; N, C: chain ends. Non-standard residues stand in square brackets, D forms with d. Primed or numbered codes have the meaning given here. B5(16) = 2-amino-2-(pent-4-en-1-yl)hept-6-enoic acid = 2,2-bis(4-pentenyl)glycine (stitching residue), C=CCCCC(CCCC=C)(N[*:1])C(=O)[*:2]; B5(4) = 2,2-bis(4-pentenyl)glycine = 2-amino-2-(pent-4-en-1-yl)hept-6-enoic acid (stitching residue), C=CCCCC(CCCC=C)(N[*:1])C(=O)[*:2]; B5(6) = 2-amino-2-(pent-4-en-1-yl)hept-6-enoic acid (bis(4-pentenyl)glycine), stitching residue, C=CCCCC(CCCC=C)(N[*:1])C(=O)[*:2]; PyrS2 = (S)-3-amino-1-((pent-4-en-1-yloxy)carbonyl)pyrrolidine-3-carboxylic acid, C=CCCCOC(=O)N1CC[C@@](N[*:1])(C(=O)[*:2])C1; B5(19) = 2-amino-2-(pent-4-en-1-yl)hept-6-enoic acid (bis(4-pentenyl)glycine), C=CCCCC(CCCC=C)(N[*:1])C(=O)[*:2]; B5 = 2-amino-2-(pent-4-en-1-yl)hept-6-enoic acid, C=CCCCC(CCCC=C)(N[*:1])C(=O)[*:2]; 2COOHF″ = O=C([C@H](Cc1ccccc1C(=O)[*:3])N[*:1])[*:2]; Phe(3-OMe) = COc1cccc(C[C@H](N)C(=O)O)c1; Phe(2-Cl) = N[C@@H](Cc1ccccc1Cl)C(=O)O; Bta = N[C@@H](Cc1csc2ccccc12)C(=O)O; αAllylPro = C=CC[C@@]1(C(=O)O)CCCN1; tBuAla = CC(C)(C)C[C@H](N)C(=O)O; 3Thi = N[C@@H](Cc1ccsc1)C(=O)O; S8 = C=CCCCCCC[C@](C)(N)C(=O)O; PyrS2(4) = not defined here

Assays:
[1] = target: T1, beta-catenin in DLD1 TCF/LEF luciferase reporter cells (UniProt P35222 1-781); test: cell-based or functional assay
T1 sequence (looked up): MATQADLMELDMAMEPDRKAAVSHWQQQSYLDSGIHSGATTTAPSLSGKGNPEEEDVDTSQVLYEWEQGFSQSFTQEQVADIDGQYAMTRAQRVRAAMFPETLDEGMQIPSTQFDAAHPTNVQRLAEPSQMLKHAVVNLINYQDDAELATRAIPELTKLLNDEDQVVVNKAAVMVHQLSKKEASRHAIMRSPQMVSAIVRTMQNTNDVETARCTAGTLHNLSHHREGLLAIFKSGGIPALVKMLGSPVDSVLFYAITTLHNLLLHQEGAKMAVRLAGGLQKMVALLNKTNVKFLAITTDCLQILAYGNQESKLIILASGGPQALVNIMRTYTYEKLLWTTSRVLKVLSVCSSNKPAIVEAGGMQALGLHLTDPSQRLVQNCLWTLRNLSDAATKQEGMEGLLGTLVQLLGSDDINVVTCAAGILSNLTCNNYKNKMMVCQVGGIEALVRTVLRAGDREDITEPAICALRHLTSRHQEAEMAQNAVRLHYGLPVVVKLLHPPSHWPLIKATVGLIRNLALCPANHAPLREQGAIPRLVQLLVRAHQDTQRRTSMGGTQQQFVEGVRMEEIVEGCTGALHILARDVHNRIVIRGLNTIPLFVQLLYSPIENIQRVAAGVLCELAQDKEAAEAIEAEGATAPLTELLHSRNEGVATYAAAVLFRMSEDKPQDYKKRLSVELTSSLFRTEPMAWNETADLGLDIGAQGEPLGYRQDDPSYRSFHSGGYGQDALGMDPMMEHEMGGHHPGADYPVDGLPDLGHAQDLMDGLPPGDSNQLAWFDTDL

[2] = target: T2, B-cat-Halo (beta-catenin HaloTag NanoBRET construct expressed in HEK293 cells) (UniProt P35222 1-781); test: cell-based or functional assay
T2 sequence (looked up): T1 sequence (looked up)

[3] = target: T3, beta-catenin in DLD1 TCF/LEF luciferase reporter cells (UniProt P35222 1-781); test: cell-based or functional assay; remark: listed apart in the source
T3 sequence (looked up): T1 sequence (looked up)

[4] = target: T4, full-length beta-Catenin (Uniprot ID P35222) (Homo sapiens (Human), UniProt P35222 1-781); test: fluorescence polarization competition; full-length beta-catenin, competitor 5FAM-TCF4(10-53) probe
T4 construct: The FP protocol says full-length beta-Catenin (Uniprot ID P35222); also called bCat; B-Catenin
T4 sequence: T1 sequence (looked up)
How it was run: (§1)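 Data fitted to 1:1 binding model with hill slope from duplicate reads taken after 60 minutes at 20° C. in the dark.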

[5] = target: T5, B-cat-Halo (beta-catenin HaloTag construct expressed in HEK293 cells) (UniProt P35222 1-781, HaloTag NanoBRET 618 Ligand bound in the assay); test: NanoBRET Abs IC50 in HEK293 cells; B-cat-Halo with competitor TCF4-Luc
T5 construct: Transfected NanoBRET construct; not shown: HaloTag
T5 sequence (looked up): T1 sequence (looked up)

[6] = target: T6, full-length beta-Catenin (Uniprot ID P35222) (Homo sapiens (Human), UniProt P35222 2-781); test: fluorescence polarization competition; full-length beta-catenin, competitor 5FAM-TCF4 10-53 probe
T6 construct: Given as 'full-length beta-Catenin (Uniprot ID P35222)' in the fluorescence polarization protocol; also called bCat; B-Catenin
T6 sequence: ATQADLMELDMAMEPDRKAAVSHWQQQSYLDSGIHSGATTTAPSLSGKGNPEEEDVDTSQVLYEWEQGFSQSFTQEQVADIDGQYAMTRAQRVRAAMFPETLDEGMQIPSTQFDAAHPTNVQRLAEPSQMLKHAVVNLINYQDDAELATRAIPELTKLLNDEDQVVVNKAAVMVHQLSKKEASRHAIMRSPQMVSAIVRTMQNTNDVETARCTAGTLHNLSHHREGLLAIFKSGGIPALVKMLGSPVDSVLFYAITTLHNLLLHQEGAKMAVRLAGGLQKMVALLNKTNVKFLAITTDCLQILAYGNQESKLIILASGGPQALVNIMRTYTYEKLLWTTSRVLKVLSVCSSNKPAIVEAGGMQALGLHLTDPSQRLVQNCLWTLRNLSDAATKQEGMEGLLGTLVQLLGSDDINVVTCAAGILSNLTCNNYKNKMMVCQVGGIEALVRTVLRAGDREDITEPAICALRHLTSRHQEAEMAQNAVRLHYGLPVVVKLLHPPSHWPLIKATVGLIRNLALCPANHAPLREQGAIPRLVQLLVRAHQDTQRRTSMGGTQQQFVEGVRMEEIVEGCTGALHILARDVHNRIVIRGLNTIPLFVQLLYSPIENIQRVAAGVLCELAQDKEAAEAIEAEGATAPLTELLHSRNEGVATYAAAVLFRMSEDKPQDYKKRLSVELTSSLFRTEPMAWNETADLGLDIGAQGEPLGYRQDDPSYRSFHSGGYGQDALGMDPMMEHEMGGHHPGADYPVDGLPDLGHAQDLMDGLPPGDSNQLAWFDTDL
Protocol: (§2) The plate was incubated protected from light for 60 minutes at 20° C. prior to read. Reads were performed on a CLARIOstar plate reader (BMG Labtech) in duplicate, and data were fitted to a 1:1 binding model with hill slope using an in-house script. All provided concentrations are final concentrations.

[7] = target: T7, beta-catenin in DLD1 TCF/LEF luciferase reporter cells (Homo sapiens (Human), UniProt P35222 1-781); test: cell-based or functional assay
T7 sequence: T1 sequence (looked up)

[8] = target: T8, B-cat-Halo (beta-catenin HaloTag NanoBRET construct expressed in HEK293 cells) (UniProt P35222 1-781); test: NanoBRET target engagement in HEK293 cells (B-cat-Halo / TCF4-Luc); competitor TCF4-Luc
T8 construct: Transfected together with TCF4-Luc into HEK293 cells; not shown: HaloTag
T8 sequence (looked up): T1 sequence (looked up)

[9] = target: T9, full-length beta-Catenin (Uniprot ID P35222) (Homo sapiens (Human), UniProt P35222 1-781); test: fluorescence polarization competition; 10 nM full-length beta-catenin + 10 nM 5FAM-TCF4(10-53) probe
T9 construct: also called bCat; B-Catenin
T9 sequence: T1 sequence (looked up)
Protocol: as §2

[10] = target: T8, B-cat-Halo (beta-catenin HaloTag …); test: NanoBRET target engagement in HEK293 cells (B-cat-Halo / TCF4-Luc); absolute IC50; competitor TCF4-Luc
[11] = target: T10, full-length beta-Catenin (Uniprot ID P35222) (Homo sapiens (Human), UniProt P35222 1-781); test: fluorescence polarization competition; full-length beta-catenin with 5FAM-labeled TCF4 residues 10-53 probe as competitor
T10 construct: also called bCat; B-Catenin
T10 sequence: T1 sequence (looked up)
How it was run: as §1

[12] = target: T11, B-cat-Halo (UniProt P35222 1-781, HaloTag NanoBRET 618 Ligand bound to the HaloTag in the assay); test: NanoBRET absolute IC50 in HEK293 cells; Bcat-Halo, competitor TCF4-Luc
T11 construct: Transfected into HEK293 cells for the NanoBRET assay; intracellular; also called beta-catenin HaloTag fusion; not shown: HaloTag
T11 sequence (looked up): T1 sequence (looked up)

[13] = target: T12, full-length beta-Catenin (Uniprot ID P35222) (Homo sapiens (Human), UniProt P35222 1-781); test: fluorescence polarization competition; full-length beta-catenin, competitor 5FAM-TCF4(10-53) probe
T12 construct: Tags of the recombinant protein are not described for the FP assay; also called bCat; B-Catenin
T12 sequence: T1 sequence (looked up)
How it was run: as §1

Binder: Ac-[αAllylPro]D[tBuAla][B5(16)]D[2COOHF″]AAFL[PyrS2(4)][3Thi][Bta]S-NH2 (staple 1-4, 4-11; not fully specified; reading uncertain) [I-1667]
- DLD1 4% Abs IC50 [1]: 1.3 µM

Binder: Ac-[αAllylPro]DF[B5(4)]DDAAFS[PyrS2][Phe(2-Cl)][Bta]S-NH2 (staple 1-4, 4-11) [I-1051]
- NanoBRET Abs IC50 [2]: > 20 µM
- DLD1 reporter assay Abs IC50 [3]: > 20 µM
- EC50 [4]: 0.014 µM

Binder: Ac-[αAllylPro]DL[B5(4)]DEAAFQ[S8]F[Bta]Q-NH2 (staple 1-4, 4-11) [I-1458]
- IC50 [12]: 18.1 µM
- IC50 [13]: 0.026 µM

Continued, values first:

- IC50 [5]: 27.1 µM
- IC50 [6]: 0.009 µM
Binder: Ac-[αAllylPro]DL[B5(19)]DDAAFL[PyrS2]F[Bta]Q-NH2 (staple 1-4, 4-11) [I-1402]

- DLD1 reporter assay Abs IC50 [7]: 10.8 µM
- IC50 [8]: 5.6 µM
- EC50 [9]: 0.023 µM
- NanoBRET Abs IC50 [10]: 4.9 µM
B1: I-505 (peptide)
peptide: Ac-[αAllylPro]DL[B5(6)]DEAAFQ[S8]F[Bta]Q-NH2
modifications: staple 1-4, 4-11
notes: Stapled peptide composition; also called Ac-PL3-Asp-Leu-B5-Asp-Glu-Ala-Ala-Phe-Gln-S8-Phe-BztA-Gln-NH2

- EC50 [11]: 0.114 µM
Binder: Ac-[αAllylPro]DI[B5]DEAA[Phe(3-OMe)]Q[S8]F[Bta]Q-NH2 (staple 1-4, 4-11, Stapled peptide composition) [I-724]
